For one series, the system named is N,N-dimethylcasein. Description: Productivity: total product formed after 24 hours (protein functionalization assay). Type of series: biochemical. The note with it: improvement relative to wild-type Tgase (SEQ ID NO: 2); total product after 24 h. The method, boiled down:
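S. mobaraensis transglutaminase variants from cell-free expression were diluted 10-fold in phosphate buffer pH 7.4, with enzyme loading set so that enzyme was rate-limiting. Crosslinking of monodansylcadaverine to N,N-dimethylcasein was followed by fluorescence (ex 332/em 500 nm). Productivity is the total product after 24 h, scored as fold change versus wild type.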

In another series the test system is E. coli (ATCC 8739). Description: MIC determination against E. coli. The series is classed as cell-based. As for the experimental part:
(§1) E. coli (ATCC 8739) and C. albicans (ATCC 10231) were acquired from the American Type Culture Collection (ATCC) (Manassas, VA) and maintained as −80° C. frozen glycerol stocks.
The following day, the cell density of the saturated cultures was calculated using OD600 and cultures were diluted to 104 to 10^6 CFU/mL in sterile Mueller Hinton broth to generate the inoculum, and 100 μL of the inoculum was combined with 100 μL of serially diluted Tgase variant A3 (SEQ ID NO: 4) at a range of 0.0001-0.05 weight percent. Growth curves were measured by OD600 on a BioTek® Synergy Plate Reader. All test conditions were performed in triplicate. MIC was determined to be […] (0.005% w/v) against E. coli for the enzyme described in SEQ ID NO: 4 using OD600.

For another series, the system named is C. albicans (ATCC 10231). Kind of series: MIC determination against C. albicans. Type of series: cell-based. As for the experimental part: as §1
For MIC determination of yeast cultures, C. albicans (ATCC 10231) was grown overnight (24 hours) in Sabouraud Dextrose broth at 30° C. The following day, the cell density of the saturated cultures was calculated using OD600 and cultures were diluted to 104 to 10^6 CFU/mL in sterile Sabouraud Dextrose broth media to generate the inoculum, and 100 μL of the inoculum was combined with 100 μL of serially diluted Tgase variant at a range of 0.0001-0.05 weight percent. The cultures were grown overnight at 30° C. and growth curves were measured by OD600 on a BioTek® Synergy Plate Reader. All test conditions were performed in triplicate. MIC was determined to be […] (0.005% w/v) against C. albicans for the enzyme described in SEQ ID NO: 4 using OD600.

The subject of the next series is C. albicans. Description: Preservative efficacy in body lotion against C. albicans. The series is classed as cell-based. The conditions noted are these: 0.005% in combinations, phenoxyethanol 0.7% alone, 0.3% combined, caprylyl glycol 0.7% alone, 0.35% combined, sodium benzoate 0.5% + EDTA 0.5%, 2% 2:1 propanediol:hexanediol, 0.5% CHA solution. Here is the method: A vessel was filled with deionized water, placed under an overhead stirrer set to moderate mixing, and heated to 75-80° C. Glycerin was added to 2% and mixed until dissolved, followed by xanthan gum to 0.2%. At 75-80° C., cetearyl glucoside and cetearyl alcohol were added to 4% and 3%. Once both had melted fully, milk thistle seed oil was added and the batch was homogenized with a Silverson homogenizer with the standard emulsion screen until the batch had turned milky white. The batch was removed from heat and returned to propellor mixing with decreased speed to allow the emulsion to set up. At 40° C., pH was adjusted to pH 5.5-6.0 using citric acid or sodium hydroxide and split into several portions and allowed to finish cooling. Once cooled to room temperature, one portion of the body lotion was left unpreserved and the remaining portions were preserved with one or more substances selected from aseptilase, phenoxyethanol, caprylyl glycol, sodium benzoate, and EDTA. All samples were inoculated with E. coli (10^6 CFU/mL) and C. albicans (10^5 CFU/mL) and plated after 2 and 7 days.

[1] abbreviates: OD600, printed in brackets after the ppm value.

B1: A3: Tgase variant S2P Q50S Q74A K91H Q124L K151R K152R N282M G283A relative to SEQ ID NO: 2 (protein, UniProt P81453 77-407, looked up, variant S2P Q50S Q74A K91H Q124L K151R K152R N282M G283A)
Protein-glutamine …: DPDDRVTPPAEPLDRMPDPYRPSYGRAETVVNNYIRKWQQVYSHRDGRKSQMTEEQREWLSYGCVGVTWVNSGAYPTNRLAFASFDEDRFHNELKNGRPRSGETRAEFEGRVAKESFDEEKGFLRAREVASVMNRALENAHDESAYLDNLRRELANGNDALRNEDARSPFYSALRNTPSFKERNGGNHDPSRMKAVIYSKHFWSGQDRSSSADKRKYGDPDAFRPAPGTGLVDMSRDRNIPRSPTSPGEGFVNFDYGWFGAQTEADADKTVWTHGNHYHAPMASLGAMHVYESKFRNWSEGYSDFDRGAYVITFIPKSWNTAPDKVKQGWP
Regarding B1, in the series on N,N-dimethylcasein, the Productivity result is “+ (an improvement between 1.2 and 2-fold)”. In addition, the MIC with E. coli (ATCC 8739) (OD600) was determined as 200 ppm; in the series with E. coli (ATCC 8739) (setting [1]) it was 0.005 % w/v; in the series with C. albicans (ATCC 10231) (OD600) it was 100 ppm; in the series with C. albicans (ATCC 10231) (setting [1]) it was 0.005 % w/v. For the same molecule, the “Preservative efficacy against C. albicans, log reduction” value is listed as −1.08 log reduction in CFU/mL in the series with C. albicans (day 2, aseptilase 0.01% alone) and −1.19 log reduction in CFU/mL in the series on C. albicans (day 7, aseptilase 0.01% alone).

The values above are taken from patent US20260327578A1, “TRANSGLUTAMINASES AND USES THEREOF” (CURIE CO. INC., priority 2023, published 2026).
